Tests used:
[1] = test system: HeLa Kyoto; assay: thermal stability score vs G1/S (z-score of summed log2 fold changes over temperatures); higher = more thermally stable than in G1/S
[2] = test system: HeLa Kyoto; assay: solubility change mitosis vs G1/S (difference of NP-40 vs SDS log2 ratios) (log2 ratio difference); higher = more soluble in mitosis
[3] = test system: HeLa Kyoto; assay: melting temperature (median over replicates), in situ; higher = more thermally stable
[4] = test system: HeLa Kyoto; assay: solubility in G1/S (NP-40 vs SDS abundance) (log2 ratio); higher = more soluble; conditions: cell cycle stage: G1/S
[5] = cell cycle stage: early G1 (4.5 h after nocodazole release)
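For melting temperature (median over replicates), in situ in this document: HeLa Kyoto cells synchronized by double thymidine or nocodazole block, proteins quantified by TMT10plex mass spectrometry, three independent biological replicates.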
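For solubility change mitosis vs G1/S (difference of NP-40 vs SDS log2 ratios) in this document: synchronized HeLa Kyoto cells (double thymidine block for G1/S, nocodazole release for mitosis), protein amounts in NP-40 versus SDS lysates quantified by mass spectrometry, three biological replicates.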
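For solubility in G1/S (NP-40 vs SDS abundance) in this document: HeLa Kyoto cells arrested at G1/S by double thymidine block, proteins quantified by TMT10plex mass spectrometry in mild NP-40 versus SDS extracts, three biological replicates.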
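For thermal stability score vs G1/S (z-score of summed log2 fold changes over temperatures) in this document: synchronized HeLa Kyoto cells, proteins quantified by TMT10plex mass spectrometry, three biological replicates, mitosis taken 0.5 h after nocodazole release, G1/S directly after double thymidine block.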

LARP4B, sequence (chain, as listed by the source): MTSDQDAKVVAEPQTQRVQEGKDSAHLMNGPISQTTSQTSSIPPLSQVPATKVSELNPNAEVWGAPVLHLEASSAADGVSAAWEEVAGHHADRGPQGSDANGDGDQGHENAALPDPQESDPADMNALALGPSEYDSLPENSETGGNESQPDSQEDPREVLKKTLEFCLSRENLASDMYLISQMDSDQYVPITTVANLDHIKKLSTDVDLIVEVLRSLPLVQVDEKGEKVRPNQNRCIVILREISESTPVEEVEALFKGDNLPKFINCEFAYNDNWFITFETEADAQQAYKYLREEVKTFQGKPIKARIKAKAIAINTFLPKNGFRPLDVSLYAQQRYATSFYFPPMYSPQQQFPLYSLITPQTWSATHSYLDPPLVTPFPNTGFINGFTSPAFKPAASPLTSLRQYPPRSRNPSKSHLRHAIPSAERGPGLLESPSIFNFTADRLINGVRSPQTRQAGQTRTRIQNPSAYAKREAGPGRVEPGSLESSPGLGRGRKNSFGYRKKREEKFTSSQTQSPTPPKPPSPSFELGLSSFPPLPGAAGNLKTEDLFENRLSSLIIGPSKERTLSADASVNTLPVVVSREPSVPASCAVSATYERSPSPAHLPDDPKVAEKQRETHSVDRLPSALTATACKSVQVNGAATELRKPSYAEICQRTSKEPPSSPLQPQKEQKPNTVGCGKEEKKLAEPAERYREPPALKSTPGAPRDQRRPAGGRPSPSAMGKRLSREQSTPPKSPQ
LIMD1, sequence (chain, as listed by the source): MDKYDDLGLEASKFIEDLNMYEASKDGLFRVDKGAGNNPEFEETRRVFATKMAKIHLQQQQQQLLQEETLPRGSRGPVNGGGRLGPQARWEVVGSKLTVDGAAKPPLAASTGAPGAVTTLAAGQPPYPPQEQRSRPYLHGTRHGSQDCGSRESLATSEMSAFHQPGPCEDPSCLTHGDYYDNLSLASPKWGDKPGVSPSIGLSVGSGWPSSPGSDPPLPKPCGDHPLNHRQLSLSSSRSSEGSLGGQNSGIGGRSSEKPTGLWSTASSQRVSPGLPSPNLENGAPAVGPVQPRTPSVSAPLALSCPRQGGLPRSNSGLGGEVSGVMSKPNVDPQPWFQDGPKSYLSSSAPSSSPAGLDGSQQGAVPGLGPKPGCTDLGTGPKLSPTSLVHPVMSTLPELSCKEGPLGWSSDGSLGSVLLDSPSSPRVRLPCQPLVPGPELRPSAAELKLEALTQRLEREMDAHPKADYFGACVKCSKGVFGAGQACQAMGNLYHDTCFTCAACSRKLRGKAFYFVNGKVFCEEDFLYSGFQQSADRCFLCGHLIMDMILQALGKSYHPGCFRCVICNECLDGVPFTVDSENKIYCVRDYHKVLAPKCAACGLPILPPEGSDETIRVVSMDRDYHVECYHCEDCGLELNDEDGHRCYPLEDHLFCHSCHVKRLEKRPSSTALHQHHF
HNRNPAB, sequence (chain, as listed by the source): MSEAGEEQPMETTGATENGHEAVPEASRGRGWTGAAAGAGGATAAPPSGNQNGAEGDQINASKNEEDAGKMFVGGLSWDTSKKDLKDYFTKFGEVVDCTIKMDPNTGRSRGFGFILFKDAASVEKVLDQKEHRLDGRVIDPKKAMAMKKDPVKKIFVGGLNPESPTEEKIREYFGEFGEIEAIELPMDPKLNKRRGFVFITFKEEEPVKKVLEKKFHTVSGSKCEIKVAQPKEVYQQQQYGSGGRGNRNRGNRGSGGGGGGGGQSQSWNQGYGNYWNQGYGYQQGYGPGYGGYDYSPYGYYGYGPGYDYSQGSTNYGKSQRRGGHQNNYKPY
IRF2BP1, sequence (chain, as listed by the source): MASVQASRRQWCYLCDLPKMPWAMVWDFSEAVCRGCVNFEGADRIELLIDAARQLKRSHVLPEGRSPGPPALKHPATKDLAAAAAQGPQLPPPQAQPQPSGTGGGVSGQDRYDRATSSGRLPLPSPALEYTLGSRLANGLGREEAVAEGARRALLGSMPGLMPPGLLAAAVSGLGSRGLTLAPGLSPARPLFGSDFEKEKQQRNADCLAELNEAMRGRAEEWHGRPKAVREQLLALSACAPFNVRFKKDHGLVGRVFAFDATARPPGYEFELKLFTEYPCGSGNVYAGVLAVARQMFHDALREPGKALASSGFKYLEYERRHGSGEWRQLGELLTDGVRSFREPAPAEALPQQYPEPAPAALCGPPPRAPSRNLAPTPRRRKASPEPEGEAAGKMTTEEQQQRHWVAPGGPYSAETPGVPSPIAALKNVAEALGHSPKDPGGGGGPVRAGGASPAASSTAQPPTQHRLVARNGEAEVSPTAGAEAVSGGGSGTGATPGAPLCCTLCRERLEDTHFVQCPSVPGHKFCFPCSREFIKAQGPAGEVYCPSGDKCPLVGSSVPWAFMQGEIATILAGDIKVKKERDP

| Substance | thermal stability score [1, 5] | thermal stability score ([1]; cell cycle stage: mitosis) | solubility change mitosis (log2) [2] | melting temperature ([3]; cell cycle stage: G1/S) | melting temperature ([3]; cell cycle stage: mitosis) | solubility in G1/S (log2) [4] |
| --- | --- | --- | --- | --- | --- | --- |
| FRG1 | 0.899 | 0.827 | 0.0777 | 51.2 °C | 51.3 °C | -0.326 |
| GMPPB | -1.12 | -4.14 | -0.108 | 54.3 °C | 54.1 °C | -0.038 |
| GMPS | 2.38 | 1.21 | -0.148 | 51.1 °C | 51.6 °C | 0.0167 |
| GOLGA3 | 0.197 | -1.4 | -0.048 | 51.8 °C | 50.4 °C | 0.313 |
| GOLGB1 | 1.43 | 4.58 | -0.0748 | 48.6 °C | 49.9 °C | 0.115 |
| GPATCH8 | 0.236 | 4.11 | 0.335 | 47.8 °C | 49.6 °C | -0.561 |
| HADHA | -1.31 | 0.108 | -0.133 | 50.8 °C | 50.9 °C | 0.196 |
| HCFC1 | -0.303 | 0.00236 | -0.0808 | 52.5 °C | 52.7 °C | 0.179 |
| HEATR5B | -0.405 | -0.289 | -0.00901 | 50.8 °C | 52.4 °C | -0.275 |
| HNRNPAB | -0.524 | -3.14 | 0.251 | 55.3 °C | 54.4 °C | 0.308 |
| INADL | 0.59 | 1.68 | -0.068 | 47.4 °C | 49.2 °C | -0.0157 |
| IRF2BP1 | 1.4 | 3.22 | -0.0595 | 46.9 °C | 49.5 °C | 0.316 |
| ITPR3 | 0.858 | 2.41 | 0.0432 | 48.6 °C | 50.1 °C | -0.508 |
| KDM3B | 0.937 | 2.62 | -0.108 | 48.6 °C | 49.8 °C | 0.00792 |
| KDM5C | 0.484 | 0.572 | -0.075 | 49.3 °C | 50 °C | -0.0935 |
| KIF21A | -1.01 | 0.181 | -0.0922 | 49.5 °C | 50.3 °C | -0.0549 |
| KNTC1 | -0.336 | 0.546 | -0.188 | 49.6 °C | 49.4 °C | -0.33 |

| Substance | thermal stability score [1, 5] | thermal stability score ([1]; cell cycle stage: mitosis) | solubility change mitosis (log2) [2] | melting temperature ([3]; cell cycle stage: G1/S) | melting temperature ([3]; cell cycle stage: mitosis) | solubility in G1/S (log2) [4] |
| --- | --- | --- | --- | --- | --- | --- |
| LAMC1 | 2.27 | 3.77 | -0.0329 | 53.5 °C | 53.9 °C | -0.0818 |
| LARP4B | -0.656 | -1.1 | 0.533 | 50.8 °C | 50 °C | -0.183 |
| LIMD1 | 0.183 | -0.541 | -0.126 | 51.8 °C | 51.9 °C | 0.148 |
| LRP1 | -1.09 | -1.22 | -0.0628 | 55.5 °C | 55.1 °C | -0.0261 |
| LSM14B | 0.76 | 1.45 | 0.137 | 49.6 °C | 50 °C | 0.0485 |
| MAAAAAAGEARRVLVYGGRGALGSRCVQAFRARNWWVASVDVVENEEASASIIVKMTDSFTEQADQVTAEVGKLLGEEKVDAILCVAGGWAGGNAKSKSLFKNCDLMWKQSIWTSTISSHLATKHLKEGGLLTLAGAKAALDGTPGMIGYGMAKGAVHQLCQSLAGKNSGMPPGAAAIAVLPVTLDTPMNRKSMPEADFSSWTPLEFLVETFHDWITGKNRPSSGSLIQVVTTEGRTELTPAYF [QDPR] | -1.31 | -0.994 | -0.0466 | 55.5 °C | 55.5 °C | 0.236 |
| MAAAAAGTATSQRFFQSFSDALIDEDPQAALEELTKALEQKPDDAQYYCQRAYCHILLGNYCVAVADAKKSLELNPNNSTAMLRKGICEYHEKNYAAALETFTEGQKLDIETGFHRVGQAGLQLLTSSDPPALDSQSAGITGADANFSVWIKRCQEAQNGSESEVWTHQSKIKYDWYQTESQVVITLMIKNVQKNDVNVEFSEKELSALVKLPSGEDYNLKLELLHPIIPEQSTFKVLSTKIEIKLKKPEAVRWEKLEGQGDVPTPKQFVADVKNLYPSSSPYTRNWDKLVGEIKEEEKNEKLEGDAALNRLFQQIYSDGSDEVKRAMNKSFMESGGTVLSTNWSDVGKRKVEINPPDDMEWKKY [SUGT1] | 0.39 | -0.171 | -0.0323 | 51.5 °C | 52 °C | 0.138 |
| MAAAAAQGGGGGEPRRTEGVGPGVPGEVEMVKGQPFDVGPRYTQLQYIGEGAYGMVSSAYDHVRKTRVAIKKISPFEHQTYCQRTLREIQILLRFRHENVIGIRDILRASTLEAMRDVYIVQDLMETDLYKLLKSQQLSNDHICYFLYQILRGLKYIHSANVLHRDLKPSNLLINTTCDLKICDFGLARIADPEHDHTGFLTEYVATRWYRAPEIMLNSKGYTKSIDIWSVGCILAEMLSNRPIFPGKHYLDQLNHILGILGSPSQEDLNCIINMKARNYLQSLPSKTKVAWAKLFPKSDSKALDLLDRMLTFNPNKRITVEEALAHPYLEQYYDPTDEPVAEEPFTFAMELDDLPKERLKELIFQETARFQPGVLEAP [MAPK3] | -0.246 | -0.247 | -0.228 | 51.3 °C | 50.2 °C | 0.391 |
| MAAAAGRSLLLLLSSRGGGGGGAGGCGALTAGCFPGLGVSRHRQQQHHRTVHQRIASWQNLGAVYCSTVVPSDDVTVVYQNGLPVISVRLPSRRERCQFTLKPISDSVGVFLRQLQEEDRGIDRVAIYSPDGVRVAASTGIDLLLLDDFKLVINDLTYHVRPPKRDLLSHENAATLNDVKTLVQQLYTTLCIEQHQLNKERELIERLEDLKEQLAPLEKVRIEISRKAEKRTTLVLWGGLAYMATQFGILARLTWWEYSWDIMEPVTYFITYGSAMAMYAYFVMTRQEYVYPEARDRQYLLFFHKGAKKSRFDLEKYNQLKDAIAQAEMDLKRLRDPLQVHLPLRQIGEKD [MCU] | 0.0563 | -1.45 | -0.0872 | 53 °C | 52.9 °C | 0.00831 |
| MAAAALRSGWCRCPRRCLGSGIQFLSSHNLPHGSTYQMRRPGGELPLSKSYSSGNRKGFLSGLLDNVKQELAKNKEMKESIKKFRDEARRLEESDVLQEARRKYKTIESETVRTSEVLRKKLGELTGTVKESLHEVSKSDLGRKIKEGVEEAAKTAKQSAESVSKGGEKLGRTAAFRALSQGVESVKKEIDDSVLGQTGPYRRPQRLRKRTEFAGDKFKEEKVFEPNEEALGVVLHKDSKWYQQWKDFKENNVVFNRFFEMKMKYDESDNAFIRASRALTDKVTDLLGGLFSKTEMSEVLTEILRVDPAFDKDRFLKQCENDIIPNVLEAMISGELDILKDWCYEATYSQLAHPIQQAKALGLQFHSRILDIDNVDLAMGKMMEQGPVLIITFQAQLVMVVRNPKGEVVEGDPDKVLRMLYVWALCRDQDELNPYAAWRLLDISASSTEQIL [TIMM44] | 0.205 | -0.742 | -0.0435 | 52 °C | 51.6 °C | 0.144 |
| MAAAANSGSSLPLFDCPTWAGKPPPGLHLDVVKGDKLIEKLIIDEKKYYLFGRNPDLCDFTIDHQSCSRVHAALVYHKHLKRVFLIDLNSTHGTFLGHIRLEPHKPQQIPIDSTVSFGASTRAYTLREKPQTLPSAVKGDEKMGGEDDELKGLLGLPEEETELDNLTEFNTAHNKRISTLTIEEGNLDIQRPKRKRKNSRVTFSEDDEIINPEDVDPSVGRFRNMVQTAVVPVKKKRVEGPGSLGLEESGSRRMQNFAFSGGLYGGLPPTHSEAGSQPHGIHGTALIGGLPMPYPNLAPDVDLTPVVPSAVNMNPAPNPAVYNPEAVNEPKKKKYAKEAWPGKKPTPSLLI [PPP1R8] | 0.0118 | -0.547 | -0.0793 | 50.4 °C | 51.2 °C | 0.0809 |
| MAAAAPDSRVSEEENLKKTPKKKMKMVTGAVASVLEDEATDTSDSEGSCGSEKDHFYSDDDAIEADSEGDAEPCDKENENDGESSVGTNMGWADAMAKVLNKKTPESKPTILVKNKKLEKEKEKLKQERLEKIKQRDKRLEWEMMCRVKPDVVQDKETERNLQRIATRGVVQLFNAVQKHQKNVDEKVKEAGSSMRKRAKLISTVSKKDFISVLRGMDGSTNETASSRKKPKAKQTEVKSEEGPGWTILRDDFMMGASMKDWDKESDGPDDSRPESASDSDT [RRP15] | -5.18 | -11.7 | 0.962 | – | 54.2 °C | -1.21 |
| MAAAAVSGALGRAGWRLLQLRCLPVARCRQALVPRAFHASAVGLRSSDEQKQQPPNSFSQQHSETQGAEKPDPESSHSPPRYTDQGGEEEEDYESEEQLQHRILTAALEFVPAHGWTAEAIAEGAQSLGLSSAAASMFGKDGSELILHFVTQCNTRLTRVLEEEQKLVQLGQAEKRKTDQFLRDAVETRLRMLIPYIEHWPRALSILMLPHNIPSSLSLLTSMVDDMWHYAGDQSTDFNWYTRRAMLAAIYNTTELVMMQDSSPDFEDTWRFLENRVNDAMNMGHTAKQVKSTGEALVQGLMGAAVTLKNLTGLNQRR [COQ9] | -0.112 | 0.754 | 0.333 | 51.5 °C | 51.8 °C | 0.16 |
| MAAACRSVKGLVAVITGGASGLGLATAERLVGQGASAVLLDLPNSGGEAQAKKLGNNCVFAPADVTSEKDVQTALALAKGKFGRVDVAVNCAGIAVASKTYNLKKGQTHTLEDFQRVLDVNLMGTFNVIRLVAGEMGQNEPDQGGQRGVIINTASVAAFEGQVGQAAYSASKGGIVGMTLPIARDLAPIGIRVMTIAPGLFGTPLLTSLPEKVCNFLASQVPFPSRLGDPAEYAHLVQAIIENPFLNGEVIRLDGAIRMQP [HSD17B10] | 0.0147 | -4.18 | -0.041 | 54.5 °C | 54.4 °C | 0.254 |
| MAAAEAGGDDARCVRLSAERAQALLADVDTLLFDCDGVLWRGETAVPGAPEALRALRARGKRLGFITNNSSKTRAAYAEKLRRLGFGGPAGPGASLEVFGTAYCTALYLRQRLAGAPAPKAYVLGSPALAAELEAVGVASVGVGPEPLQGEGPGDWLHAPLEPDVRAVVVGFDPHFSYMKLTKALRYLQQPGCLLVGTNMDNRLPLENGRFIAGTGCLVRAVEMAAQRQADIIGKPSRFIFDCVSQEYGINPERTVMVGDRLDTDILLGATCGLKTILTLTGVSTLGDVKNNQESDCVSKKKMVPDFYVDSIADLLPALQG [PGP] | -0.684 | -1.2 | -0.00434 | 56.8 °C | 58.2 °C | 0.536 |
| MAAAEGPVGDGELWQTWLPNHVVFLRLREGLKNQSPTEAEKPASSSLPSSPPPQLLTRNVVFGLGGELFLWDGEDSSFLVVRLRGPSGGGEEPALSQYQRLLCINPPLFEIYQVLLSPTQHHVALIGIKGLMVLELPKRWGKNSEFEGGKSTVNCSTTPVAERFFTSSTSLTLKHAAWYPSEILDPHVVLLTSDNVIRIYSLREPQTPTNVIILSEAEEESLVLNKGRAYTASLGETAVAFDFGPLAAVPKTLFGQNGKDEVVAYPLYILYENGETFLTYISLLHSPGNIGKLLGPLPMHPAAEDNYGYDACAVLCLPCVPNILVIATESGMLYHCVVLEGEEEDDHTSEKSWDSRIDLIPSLYVFECVELELALKLASGEDDPFDSDFSCPVKLHRDPKCPSRYHCTHEAGVHSVGLTWIHKLHKFLGSDEEDKDSLQELSTEQKCFVEHILCTKPLPCRQPAPIRGFWIVPDILGPTMICITSTYECLIWPLLSTVHPASPPLLCTREDVEVAESPLRVLAETPDSFEKHIRSILQRSVANPAFLKASEKDIAPPPEECLQLLSRATQVFREQYILKQDLAKEEIQRRVKLLCDQKKKQLEDLSYCREERKSLREMAERLADKYEEAKEKQEDIMNRMKKLLHSFHSELPVLSDSERDMKKELQLIPDQLRHLGNAIKQVTMKKDYQQQKMEKVLSLPKPTIILSAYQRKCIQSILKEEGEHIREMVKQINDIRNHVNF [NUP88] | -1.46 | -0.755 | 0.171 | 50.4 °C | 48.8 °C | -0.268 |
| MAAAEPAVLALPNSGAGGAGAPSGTVPVLFCFSVFARPSSVPHGAGYELLIQKFLSLYGDQIDMHRKFVVQLFAEEWGQYVDLPKGFAVSERCKVRLVPLQIQLTTLGNLTPSSTVFFCCDMQERFRPAIKYFGDIISVGQRLLQGARILGIPVIVTEQYPKGLGSTVQEIDLTGVKLVLPKTKFSMVLPEVEAALAEIPGVRSVVLFGVETHVCIQQTALELVGRGVEVHIVADATSSRSMMDRMFALERLARTGIIVTTSEAVLLQLVADKDHPKFKEIQNLIKASAPESGLLSKV [ISOC1] | -1.52 | -0.91 | -0.11 | 55.3 °C | 55.4 °C | 0.237 |

Source: the supplement of paper PMC5998384
